One molecule from patent US20070167369A1 (published 2007) can be followed below.

This experiment has as its target HUVECs. Description: cell binding (Scatchard, Abs. 490 nm).

One may read the Kd as a measure of binding affinity in units of concentration. A high value points to weaker binding.

B1: Regenin (other)
chain: MGTVMDVLKGDNRFSMLVAAIQSAGLTETLNREGVYTVFAPTNEAFRALPPRERSRLLGDAKELANILKYHIGDEILVSGGIGALVRLKSLQGDKLEVSLKNNVVSVNKEPVAEPDIMATNGVVHVITNVLMGTVMDVLKGDNRFSMLVAAIQSAGLTETLNREGVYTVFAPTNEAFRALPPRERSRLLGDAKELANILKYHIGDEILVSGGIGALVRLKSLQGDKLEVSLKNNVVSVNKEPVAEPDIMATNGVVHVITNVLMGTVMDVLKGDNRFSMLVAAIQSAGLTETLNREGVYTVFAPTNEAFRALPPRERSRLLGDAKELANILKYHIGDEILVSGGIGALVRLKSLQGDKLEVSLKNNVVSVNKEPVAEPDIMATNGVVHVITNVLMGTVMDVLKGDNRFSMLVAAIQSAGLTETLNREGVYTVFAPTNEAFRALPPRERSRLLGDAKELANILKYHIGDEILVSGGIGALVRLKSLQGDKLEVSLKNNVVSVNKEPVAEPDIMATNGVVHVITNVL
As for B1, binding was characterised by a dissociation constant (Kd) of 1000 nM.
